Here are results for two molecules from PMC12019227, “Phase separation of hnRNPA1 and TERRA regulates telomeric stability”.

In one data set the target is UP1 R55A (human, UniProt P09651 1-196, R55A). The experiment in a line: ITC; ITC: 20 mM Tris-HCl pH 7.5, 150 mM NaCl, 20 C; protein 160 uM in syringe, RNA 10 uM in cell. The following applies: protein: recombinant; tags: C-terminal His6; single strand; crystal has 2 antiparallel strands. For orientation: Isothermal titration calorimetry measures the heat released or taken up as one component is titrated into another.
Sequence of UP1 R55A (P09651 1-196 R55A): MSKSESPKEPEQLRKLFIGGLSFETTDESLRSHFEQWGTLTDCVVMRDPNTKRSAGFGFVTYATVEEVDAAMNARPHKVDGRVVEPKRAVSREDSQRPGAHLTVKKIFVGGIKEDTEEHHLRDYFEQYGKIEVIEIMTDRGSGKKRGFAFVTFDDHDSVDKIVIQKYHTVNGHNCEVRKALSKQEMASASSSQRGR

The next data set deals with UP1 V90A/R92A/S95A (human, UniProt P09651 1-196, V90A;R92A;S95A). Described as above. The settings on record: protein: recombinant; tags: C-terminal His6; single strand; crystal has 2 antiparallel strands.
Sequence of UP1 V90A/R92A/S95A (P09651 1-196 V90A/R92A/S95A): as the sequence (P09651 1-196 R55A) above, with A55R, V90A, R92A, S95A counted along it
The next data set addresses UP1 R82A (human, UniProt P09651 1-196, R82A). Described as above. The settings on record: protein: recombinant; tags: C-terminal His6; single strand; crystal has 2 antiparallel strands.
Another data set concerns the target UP1 R82A/K113A (human, UniProt P09651 1-196, R82A;K113A). Described as above. The settings on record: protein: recombinant, tags: C-terminal His6, single strand.
In a further data set the target is UP1 Q12A/G147A (human, UniProt P09651 1-196, Q12A;G147A). Described as above. The following applies: protein: recombinant, tags: C-terminal His6, single strand.
Sequence of UP1 Q12A/G147A (P09651 1-196 Q12A/G147A): as the sequence (P09651 1-196 R55A) above, with Q12A, A55R, G147A counted along it
The target of the next data set is UP1 R146A (human, UniProt P09651 1-196, R146A). The description is as above. The following applies: protein: recombinant; tags: C-terminal His6; single strand; crystal has 2 antiparallel strands.
Sequence of UP1 R146A (P09651 1-196 R146A): as the sequence (P09651 1-196 R55A) above, with A55R, R146A counted along it
In the next data set the target is UP1 D42R (human, UniProt P09651 1-196, D42R). The data set is described as above. The following applies: protein: recombinant; tags: C-terminal His6; single strand; crystal has 2 antiparallel strands.
Sequence of UP1 D42R (P09651 1-196 D42R): as the sequence (P09651 1-196 R55A) above, with D42R, A55R counted along it
The next data set deals with UP1 K113A (human, UniProt P09651 1-196, K113A). Described as above. The following applies: protein: recombinant; tags: C-terminal His6; single strand; crystal has 2 antiparallel strands.
Sequence of UP1 K113A (P09651 1-196 K113A): as the sequence (P09651 1-196 R55A) above, with A55R, K113A counted along it
A further data set deals with UP1 wt (human, UniProt P09651 1-196). Described as above. The settings on record: protein: recombinant, tags: C-terminal His6, chain copies: 2, single strand.
Sequence of UP1 wt (P09651 1-196): as the sequence (P09651 1-196 R55A) above, with A55R counted along it
In data set [1] the target is T1, UP1 D42R/R146A (human, UniProt P09651 1-196, D42R;R146A). Description: ITC; text: could not bind RNA at all (conflicts with table); ITC: 20 mM Tris-HCl pH 7.5, 150 mM NaCl, 20 C; protein 160 uM in syringe, RNA 10 uM in cell. The following applies: protein: recombinant; tags: C-terminal His6; single strand; crystal has 2 antiparallel strands.
T1 sequence (P09651 1-196 D42R/R146A): as the sequence (P09651 1-196 R55A) above, with D42R, A55R, R146A counted along it
The target in data set [2] is T1, UP1 D42R/R146A. Description: ITC; ITC: 20 mM Tris-HCl pH 7.5, 150 mM NaCl, 20 C; protein 160 uM in syringe, RNA 10 uM in cell. The following applies: protein: recombinant; tags: C-terminal His6; single strand.
[3] abbreviates: crystal has 2 antiparallel strands.

Sequence of UP1 R82A/K113A (P09651 1-196 R82A/K113A): as the sequence (P09651 1-196 R55A) above, with A55R, R82A, K113A counted along it
Sequence of UP1 R82A (P09651 1-196 R82A): as the sequence (P09651 1-196 R55A) above, with A55R, R82A counted along it

Broadly, the Kd is a measure of binding affinity in units of concentration. For UUAGGGUUAGGG (ssRNA) [TERRA (UUAGGG)2], the Kd worked out at 520 ± 40 nM with UP1 R55A; 1410 ± 120 nM with UP1 V90A/R92A/S95A; 460 ± 70 nM with UP1 R82A; 770 ± 160 nM with UP1 R82A/K113A (setting [3]); 120 ± 20 nM in the data set with UP1 Q12A/G147A (setting [3]); 2120 ± 500 nM in the data set with UP1 R146A. Further, the Kd with UP1 D42R came out at 630 ± 120 nM; with UP1 K113A it was 300 ± 20 nM; with UP1 wt (setting [3]) it was 270 ± 20 nM; with UP1 D42R/R146A [1], 2260 ± 310 nM.
TTAGGGTTAGGG (ssDNA) [Telo DNA (TTAGGG)2]: the Kd in the data set with UP1 R82A/K113A worked out at 100 ± 30 nM; with UP1 Q12A/G147A, 210 ± 80 nM; with UP1 wt, 80 ± 20 nM; with UP1 D42R/R146A [2], 4030 ± 1020 nM.
